Series [1] concerns the molecule itself. As to the kind of experiment: cryo-EM structure; lipid-bound TRPV5 in detergent (DMNG) with 200 µM diC8 PI(4,5)P2; C4 symmetry, 3.9 Å.
For series [2], the target named is T1, rat calmodulin (CaM), calcium-activated (rat, UniProt P0DP29 1-149).
T1 construct: calmodulin, rat; modelled from the N-lobe (residues 6-77) and C-lobe (residues 83-147) of PDB 1CLL; Expressed from the pET 28b vector; The patch clamp experiments used purified CaM from bovine testes bought from Sigma, not this recombinant protein; also called Ca^2+-CaM; source: E. coli Rosetta 2(DE3), purified (phenyl sepharose, AKTA purifier)
Put plainly: cryo-EM structure; detergent solubilized TRPV5 (DMNG) incubated 1 h with 10 mM CaCl2 and rat CaM at 1:20 (TRPV5 tetramer:CaM), then SEC; map at 4.4 Å without applied symmetry. To be noted: both partners purified.

The values that follow come from PMC6179994, “Structural insights on TRPV5 gating by endogenous modulators” (Nature Communications, 2018).

B1: full-length rabbit TRPV5 (transient receptor potential vanilloid 5) (natural protein, UniProt Q9XSM3 1-730, looked up)
chain: MGACPPKAKGPWAQLQKLLISWPVGEQDWEQYRDRVNMLQQERIRDSPLLQAAKENDLRLLKILLLNQSCDFQQRGAVGETALHVAALYDNLEAATLLMEAAPELAKEPALCEPFVGQTALHIAVMNQNLNLVRALLARGASVSARATGAAFRRSPHNLIYYGEHPLSFAACVGSEEIVRLLIEHGADIRAQDSLGNTVLHILILQPNKTFACQMYNLLLSYDEHSDHLQSLELVPNHQGLTPFKLAGVEGNTVMFQHLMQKRKHVQWTCGPLTSTLYDLTEIDSWGEELSFLELVVSSKKREARQILEQTPVKELVSFKWKKYGRPYFCVLASLYILYMICFTTCCIYRPLKLRDDNRTDPRDITILQQKLLQEAYVTHQDNIRLVGELVTVTGAVIILLLEIPDIFRVGASRYFGQTILGGPFHVIIITYASLVLLTMVMRLTNMNGEVVPLSFALVLGWCSVMYFARGFQMLGPFTIMIQKMIFGDLMRFCWLMAVVILGFASAFHITFQTEDPNNLGEFSDYPTALFSTFELFLTIIDGPANYSVDLPFMYCITYAAFAIIATLLMLNLFIAMMGDTHWRVAQERDELWRAQVVATTVMLERKMPRFLWPRSGICGYEYGLGDRWFLRVENHHDQNPLRVLRYVEAFKCSDKEDGQEQLSEKRPSTVESGMLSRASVAFQTPSLSRTTSQSSNSHRGWEILRRNTLGHLNLGLDLGEGDGEEVYHF
notes: TRPV5, rabbit, full length; tetrameric channel; Eluted from the beads with 1D4 peptide; no removal of the tag is described; source: Saccharomyces cerevisiae, detergent solubilized, purified (1D4 antibody Sepharose beads, SEC on Superose 6)
In general, stoichiometry N refers to the number of molecules, sites or subunits per partner or assembly. In the case of B1, the “stoichiometry N” value in series [1] turned out to be 4 subunits. The binding result in series [2] is “binds”.
